Reference: paper PMC5405935, “Role of Kif15 and its novel mitotic partner KBP in K-fiber dynamics and chromosome alignment” (PLoS ONE, 2017)

B1: Kif15-M-His (amino acids 1-714, motor domain and part of the stalk) (domain or fragment, human, UniProt Q9NS87 1-714, looked up)
chain: MAPGCKTELRSVTNGQSNQPSNEGDAIKVFVRIRPPAERSGSADGEQNLCLSVLSSTSLRLHSNPEPKTFTFDHVADVDTTQESVFATVAKSIVESCMSGYNGTIFAYGQTGSGKTFTMMGPSESDNFSHNLRGVIPRSFEYLFSLIDREKEKAGAGKSFLCKCSFIEIYNEQIYDLLDSASAGLYLREHIKKGVFVVGAVEQVVTSAAEAYQVLSGGWRNRRVASTSMNRESSRSHAVFTITIESMEKSNEIVNIRTSLLNLVDLAGSERQKDTHAEGMRLKEAGNINRSLSCLGQVITALVDVGNGKQRHVCYRDSKLTFLLRDSLGGNAKTAIIANVHPGSRCFGETLSTLNFAQRAKLIKNKAVVNEDTQGNVSQLQAEVKRLKEQLAELASGQTPPESFLTRDKKKTNYMEYFQEAMLFFKKSEQEKKSLIEKVTQLEDLTLKKEKFIQSNKMIVKFREDQIIRLEKLHKESRGGFLPEEQDRLLSELRNEIQTLREQIEHHPRVAKYAMENHSLREENRRLRLLEPVKRAQEMDAQTIAKLEKAFSEISGMEKSDKNQQGFSPKAQKEPCLFANTEKLKAQLLQIQTELNNSKQEYEEFKELTRKRQLELESELQSLQKANLNLENLLEATKACKRQEVSQLNKIHAETLKIITTPTKAYQLHSRPVPKLSPEMGSFGSLYTQNSSILDNDILNEPVPPEMNEQAFEA
notes: Kif15, human, first 714 amino acids (motor domain and part of the stalk sufficient for dimerization), cloned into pET-21b; also called recombinant Kif15 motor domain; source: E. coli BL21 (DE3), purified (Ni-NTA)

Columns and labels:
[1] = target: the molecule itself; assay: SEC + other: sucrose gradient centrifugation; 80 μg of each protein alone or both in motor buffer (100mM PIPES, 2mM MgAc2, 1mM EGTA, 1mM DTT), pre-incubated 30 min on ice; Superose 6 column; 6-28% sucrose gradients, 16 h at 4°C; with or without ATP; native molecular weights calculated from Stokes radius and sedimentation coefficient
[2] = target: B1; assay: as above; settings: both partners purified

stoichiometry N [2] [KBP per Kif15-M dimer]	Binder	stoichiometry N [1]
–	B1	2
2	KBP-His (full-length His-tagged KBP) (natural protein, human, UniProt Q96EK5 1-621, looked up, also called recombinant His-tagged KBP; source: E. coli BL21 (DE3), purified (Ni-NTA)) MANVPWAEVCEKFQAALALSRVELHKNPEKEPYKSKYSARALLEEVKALLGPAPEDEDERPEAEDGPGAGDHALGLPAEVVEPEGPVAQRAVRLAVIEFHLGVNHIDTEELSAGEEHLVKCLRLLRRYRLSHDCISLCIQAQNNLGILWSEREEIETAQAYLESSEALYNQYMKEVGSPPLDPTERFLPEEEKLTEQERSKRFEKVYTHNLYYLAQVYQHLEMFEKAAHYCHSTLKRQLEHNAYHPIEWAINAATLSQFYINKLCFMEARHCLSAANVIFGQTGKISATEDTPEAEGEVPELYHQRKGEIARCWIKYCLTLMQNAQLSMQDNIGELDLDKQSELRALRKKELDEEESIRKKAVQFGTGELCDAISAVEEKVSYLRPLDFEEARELFLLGQHYVFEAKEFFQIDGYVTDHIEVVQDHSALFKVLAFFETDMERRCKMHKRRIAMLEPLTVDLNPQYYLLVNRQIQFEIAHAYYDMMDLKVAIADRLRDPDSHIVKKINNLNKSALKYYQLFLDSLRDPNKVFPEHIGEDVLRPAMLAKFRVARLYGKIITADPKKELENLATSLEHYKFIVDYCEKHPEAAQEIEVELELSKEMVSLLPTKMERFRTKMALT	–
